In article PMC11708034 one finds stoichiometry N, Kd and kon data, which are given here for five molecules.

Assay [1] has as its target CDTb heptamer (Clostridioides difficile) (UniProt O32739). Description: cryo-EM structure.
For assay [2], the target named is biotinylated CDTb oligomers (Clostridioides difficile) (UniProt O32739). Description: BLI; […]; 20 mM HEPES pH 8.0, 100 mM NaCl, […]; 5 min association, 10 min dissociation; […].
The target is the same in assay [3]. Description: BLI; biotinylated CDTb oligomers saturated on streptavidin biosensors (Octet Red 96e); CDTa 200 to 0.032 nM in solution; 20 mM HEPES pH 8.0, 100 mM NaCl, blocked with 0.01% Igepal CA-630 and 0.1% BSA; 5 min association, 10 min dissociation; kON from the slope of kobs against concentration, KD from the signal at equilibrium (sigmoidal dose-response fit).

Consider “CDTb heptamer (from UniProt O32739 45-876) (complex)”, for which, in assay [1], the stoichiometry N turned out to be 7.

B1: CDTa_(50-463) (domain or fragment)
chain: KAPIERPEDFLKDKEKAKEWERKEAERIEQKLERSEKEALESYKKDSVEISKYSQTRNYFYDYQIEANSREKEYKELRNAISKNKIDKPMYVYYFESPEKFAFNKVIRTENQNEISLEKFNEFKETIQNKLFKQDGFKDISLYEPGKGDEKPTPLLMHLKLPRNTGMLPYTNTNNVSTLIEQGYSIKIDKIVRIVIDGKHYIKAEASVVSSLDFKDDVSKGDSWGKANYNDWSNKLTPNELADVNDYMRGGYTAINNYLISNGPVNNPNPELDSKITNIENALKREPIPTNLTVYRRSGPQEFGLTLTSPEYDFNKLENIDAFKSKWEGQALSYPNFISTSIGSVNMSAFAKRKIVLRITIPKGSPGAYLSAIPGYAGEYEVLLNHGSKFKINKIDSYKDGTITKLIVDATLIP
In assay [2], B1 showed a Kd of 5.7 nM and a kon of 1.4e+06 M⁻¹ s⁻¹.

B2: CDTa_(60-463) (domain or fragment)
chain: LKDKEKAKEWERKEAERIEQKLERSEKEALESYKKDSVEISKYSQTRNYFYDYQIEANSREKEYKELRNAISKNKIDKPMYVYYFESPEKFAFNKVIRTENQNEISLEKFNEFKETIQNKLFKQDGFKDISLYEPGKGDEKPTPLLMHLKLPRNTGMLPYTNTNNVSTLIEQGYSIKIDKIVRIVIDGKHYIKAEASVVSSLDFKDDVSKGDSWGKANYNDWSNKLTPNELADVNDYMRGGYTAINNYLISNGPVNNPNPELDSKITNIENALKREPIPTNLTVYRRSGPQEFGLTLTSPEYDFNKLENIDAFKSKWEGQALSYPNFISTSIGSVNMSAFAKRKIVLRITIPKGSPGAYLSAIPGYAGEYEVLLNHGSKFKINKIDSYKDGTITKLIVDATLIP
Consider B2, for which, in assay [3], the Kd is 9.5 nM and the association rate constant (kon) amounted to 800000 M⁻¹ s⁻¹.

B3: CDTa_(67-463) (domain or fragment)
chain: KEWERKEAERIEQKLERSEKEALESYKKDSVEISKYSQTRNYFYDYQIEANSREKEYKELRNAISKNKIDKPMYVYYFESPEKFAFNKVIRTENQNEISLEKFNEFKETIQNKLFKQDGFKDISLYEPGKGDEKPTPLLMHLKLPRNTGMLPYTNTNNVSTLIEQGYSIKIDKIVRIVIDGKHYIKAEASVVSSLDFKDDVSKGDSWGKANYNDWSNKLTPNELADVNDYMRGGYTAINNYLISNGPVNNPNPELDSKITNIENALKREPIPTNLTVYRRSGPQEFGLTLTSPEYDFNKLENIDAFKSKWEGQALSYPNFISTSIGSVNMSAFAKRKIVLRITIPKGSPGAYLSAIPGYAGEYEVLLNHGSKFKINKIDSYKDGTITKLIVDATLIP
In assay [2], B3 registered a Kd of 18.5 nM and an association rate constant (kon) of 400000 M⁻¹ s⁻¹.

B4: CDTa_(40-463) (domain or fragment)
chain: YSEKVCNTTYKAPIERPEDFLKDKEKAKEWERKEAERIEQKLERSEKEALESYKKDSVEISKYSQTRNYFYDYQIEANSREKEYKELRNAISKNKIDKPMYVYYFESPEKFAFNKVIRTENQNEISLEKFNEFKETIQNKLFKQDGFKDISLYEPGKGDEKPTPLLMHLKLPRNTGMLPYTNTNNVSTLIEQGYSIKIDKIVRIVIDGKHYIKAEASVVSSLDFKDDVSKGDSWGKANYNDWSNKLTPNELADVNDYMRGGYTAINNYLISNGPVNNPNPELDSKITNIENALKREPIPTNLTVYRRSGPQEFGLTLTSPEYDFNKLENIDAFKSKWEGQALSYPNFISTSIGSVNMSAFAKRKIVLRITIPKGSPGAYLSAIPGYAGEYEVLLNHGSKFKINKIDSYKDGTITKLIVDATLIP
Turning to B4, in assay [3], the Kd is 9 nM and the kon was found to be 1.2e+06 M⁻¹ s⁻¹.
